Earlier results on one substance are cited in paper PMC3350600.

In the data set the target is PP1 (Homo sapiens) (UniProt P62136).
Chain of UniProt P62136 (P62136 2-330): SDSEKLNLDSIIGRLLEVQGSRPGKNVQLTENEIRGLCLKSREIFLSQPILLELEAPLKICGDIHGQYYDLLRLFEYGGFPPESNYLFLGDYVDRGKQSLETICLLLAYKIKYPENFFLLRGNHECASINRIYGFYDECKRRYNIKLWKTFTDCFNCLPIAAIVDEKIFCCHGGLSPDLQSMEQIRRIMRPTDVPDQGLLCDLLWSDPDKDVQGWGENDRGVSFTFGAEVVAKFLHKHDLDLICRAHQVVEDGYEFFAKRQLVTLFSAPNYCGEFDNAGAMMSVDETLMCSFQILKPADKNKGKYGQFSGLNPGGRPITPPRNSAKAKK

The term Kd denotes the concentration at which binding is half-saturated. For “Spinophilin PP1-binding domain (from UniProt O35274)”, the Kd was 8 nM.
